Experimental data: patent publication US20170157251A1 (MacroGenics, published 2017)

Tests used:
[1] = molecular target: T1, soluble human CD19-biotin (human, UniProt P15391 20-291, limits assumed, biotin (site not stated)); test: bifunctional (bispecific) ELISA: plate coated with soluble human CD3ε/δ, DART titrated, detected with soluble human CD19-biotin; the value reflects simultaneous engagement of both antigens
T1 construct: Detection antigen of the bifunctional ELISA
T1 sequence (looked up): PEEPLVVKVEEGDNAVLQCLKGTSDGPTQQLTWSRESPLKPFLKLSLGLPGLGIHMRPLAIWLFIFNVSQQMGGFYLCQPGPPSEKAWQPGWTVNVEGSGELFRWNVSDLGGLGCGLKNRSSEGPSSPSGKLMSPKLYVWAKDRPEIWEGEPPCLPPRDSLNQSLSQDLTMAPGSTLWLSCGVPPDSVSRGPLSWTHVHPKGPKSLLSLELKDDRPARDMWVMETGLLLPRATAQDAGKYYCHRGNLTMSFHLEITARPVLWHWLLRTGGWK

Cynomolgus CD19-His [2] = molecular target: T2, Cynomolgus CD19-His (cynomolgus monkey, UniProt A0A2K5W8L9 20-292); test: SPR (BIAcore), DART-A 0-100 nM, soluble antigen
T2 construct: Soluble antigen in SPR; also called soluble cynomolgus monkey CD19; not shown: His tag
T2 sequence: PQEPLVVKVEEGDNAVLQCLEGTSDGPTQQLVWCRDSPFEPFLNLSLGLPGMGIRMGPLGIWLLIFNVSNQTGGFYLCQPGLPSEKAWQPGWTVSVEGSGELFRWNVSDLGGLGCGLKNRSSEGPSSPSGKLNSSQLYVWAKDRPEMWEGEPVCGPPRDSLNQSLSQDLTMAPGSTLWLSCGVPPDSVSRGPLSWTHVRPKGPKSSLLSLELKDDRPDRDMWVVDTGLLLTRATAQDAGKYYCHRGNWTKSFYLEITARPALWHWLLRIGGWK

Human CD19-His = molecular target: T3, Human CD19-His (human, UniProt P15391 20-291, limits assumed); test: SPR (BIAcore), DART-A 0-100 nM, soluble antigen
T3 construct: Soluble antigen in SPR; also called soluble human CD19; not shown: His tag
T3 sequence (looked up): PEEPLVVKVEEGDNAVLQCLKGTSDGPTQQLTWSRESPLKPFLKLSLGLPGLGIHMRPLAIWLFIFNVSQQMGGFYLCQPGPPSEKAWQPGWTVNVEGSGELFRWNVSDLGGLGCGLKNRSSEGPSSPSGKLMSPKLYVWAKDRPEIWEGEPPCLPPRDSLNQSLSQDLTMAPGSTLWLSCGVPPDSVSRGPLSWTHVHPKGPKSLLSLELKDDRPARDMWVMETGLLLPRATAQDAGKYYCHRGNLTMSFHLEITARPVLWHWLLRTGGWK

[3] = molecular target: cynomolgus monkey CD19 on B cells (cynomolgus monkey); test: cell-based or functional assay
human CD19 on cells [4] = molecular target: T4, human CD19 on cells (human, UniProt P15391 20-556); test: cell-based or functional assay
T4 sequence (looked up): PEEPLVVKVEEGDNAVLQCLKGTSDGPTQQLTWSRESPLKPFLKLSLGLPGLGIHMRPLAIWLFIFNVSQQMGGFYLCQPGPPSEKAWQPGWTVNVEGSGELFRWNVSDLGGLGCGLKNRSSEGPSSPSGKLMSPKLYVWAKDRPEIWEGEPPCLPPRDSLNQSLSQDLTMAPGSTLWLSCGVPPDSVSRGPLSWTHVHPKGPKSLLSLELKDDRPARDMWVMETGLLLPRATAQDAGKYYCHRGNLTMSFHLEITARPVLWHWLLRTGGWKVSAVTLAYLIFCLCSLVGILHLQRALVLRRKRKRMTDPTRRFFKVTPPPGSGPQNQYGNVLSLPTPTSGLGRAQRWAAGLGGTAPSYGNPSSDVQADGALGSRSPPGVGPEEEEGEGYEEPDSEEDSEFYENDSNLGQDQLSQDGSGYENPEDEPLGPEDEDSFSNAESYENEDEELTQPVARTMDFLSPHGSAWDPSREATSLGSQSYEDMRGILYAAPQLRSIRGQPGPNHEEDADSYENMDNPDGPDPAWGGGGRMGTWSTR

Cynomolgus CD19-His [5] = molecular target: T2, Cynomolgus CD19-His; test: SPR (BIAcore), comparison of KD against human CD19-His
human CD19 on cells [6] = molecular target: T4, human CD19 on cells; test: cell-based or functional assay; remark: listed apart in the source
human CD3 on T cells = molecular target: T5, human CD3 on T cells (human, UniProt P07766 23-207; P04234 22-171); test: flow cytometry on human blood leukocytes, CD4+ and CD8+ gate (T cells); detection with biotinylated anti-E-coil/K-coil mAb and streptavidin-PE
T5 construct: also called CD3 on human CD4+ and CD8+ T cells; copies: 1 + 1
T5 sequence (P07766 23-207 limits assumed, chain 1 of 2): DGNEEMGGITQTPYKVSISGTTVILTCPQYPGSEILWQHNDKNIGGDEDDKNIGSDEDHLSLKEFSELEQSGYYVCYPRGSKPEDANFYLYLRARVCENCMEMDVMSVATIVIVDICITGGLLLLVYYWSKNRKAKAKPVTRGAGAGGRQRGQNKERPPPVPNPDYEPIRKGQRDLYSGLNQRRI
T5 sequence (P04234 22-171 limits assumed, chain 2 of 2): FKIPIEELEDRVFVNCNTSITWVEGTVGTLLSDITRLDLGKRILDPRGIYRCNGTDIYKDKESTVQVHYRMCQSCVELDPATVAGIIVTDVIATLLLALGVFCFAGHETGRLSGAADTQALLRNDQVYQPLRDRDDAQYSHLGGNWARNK

[7] = molecular target: T6, cynomolgus monkey CD3 on T cells (cynomolgus monkey, UniProt Q95LI5 22-198; Q95LI8 22-171); test: flow cytometry on cynomolgus monkey blood leukocytes, CD4+ and CD8+ gate (T cells); detection with biotinylated anti-E-coil/K-coil mAb and streptavidin-PE
T6 construct: T cells were gated as CD4+ and CD8+; also called CD3 on cynomolgus monkey CD4+ and CD8+ T cells
T6 sequence (Q95LI5 22-198 limits assumed, chain 1 of 2): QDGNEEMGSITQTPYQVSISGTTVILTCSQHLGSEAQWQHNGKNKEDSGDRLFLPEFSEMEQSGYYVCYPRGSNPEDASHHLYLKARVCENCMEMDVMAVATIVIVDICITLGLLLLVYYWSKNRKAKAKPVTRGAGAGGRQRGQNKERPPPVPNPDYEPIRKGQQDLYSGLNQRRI
T6 sequence (Q95LI8 22-171 limits assumed, chain 2 of 2): as the sequence (P04234 22-171 limits assumed, chain 2 of 2) above, with I5V, N15K, I20V, S32T, D33N, I34N, T64A, S74N, V83L, H141R counted along it

human CD19 on cells [8] = molecular target: T4, human CD19 on cells; test: cell-based or functional assay; remark: listed apart in the source

B1: DART-A (CD19×CD3 bi-specific monovalent Fc diabody) (bispecific antibody)
chain 1: ENVLTQSPATLSVTPGEKATITCRASQSVSYMHWYQQKPGQAPRLLIYDASNRASGVPSRFSGSGSGTDHTLTISSLEAEDAATYYCFQGSVYPFTFGQGTKLEIKGGGSGGGGEVQLVESGGGLVQPGGSLRLSCAASGFTFSTYAMNWVRQAPGKGLEWVGRIRSKYNNYATYYADSVKGRFTISRDDSKNSLYLQMNSLKTEDTAVYYCVRHGNFGNSYVSWFAYWGQGTLVTVSSASTKGEVAACEKEVAALEKEVAALEKEVAALEKGGGDKTHTCPPCPAPEAAGGPSVFLFPPKPKDTLMISRTPEVTCVVVDVSHEDPEVKFNWYVDGVEVHNAKTKPREEQYNSTYRVVSVLTVLHQDWLNGKEYKCKVSNKALPAPIEKTISKAKGQPREPQVYTLPPSREEMTKNQVSLWCLVKGFYPSDIAVEWESNGQPENNYKTTPPVLDSDGSFFLYSKLTVDKSRWQQGNVFSCSVMHEALHNHYTQKSLSLSPGK
chain 2: QAVVTQEPSLTVSPGGTVTLTCRSSTGAVTTSNYANWVQQKPGQAPRGLIGGTNKRAPWTPARFSGSLLGGKAALTITGAQAEDEADYYCALWYSNLWVFGGGTKLTVLGGGGSGGGGQVTLRESGPALVKPTQTLTLTCTFSGFSLSTSGMGVGWIRQPPGKALEWLAHIWWDDDKRYNPALKSRLTISKDTSKNQVFLTMTNMDPVDTATYYCARMELWSYYFDYWGQGTTVTVSSASTKGKVAACKEKVAALKEKVAALKEKVAALKE
chain 3: not shown
notes: Three covalently bonded chains; one CD19 site and one CD3 site; Fc with L234A/L235A, knob/hole, H435R on third chain; also called CD19×CD3 bi-specific molecule; CD19×CD3 bi-specific DART-A
[1]
  EC50 (read off the curve): ~0.08 µg/mL
Cynomolgus CD19-His [2]
  Kd: 20300 pM
  koff: 0.0047 s⁻¹
  kon: 240000 M⁻¹ s⁻¹
Human CD19-His
  Kd: 2000 pM
  koff: 0.00056 s⁻¹
  kon: 280000 M⁻¹ s⁻¹
[3]
  EC50 of autologous B cell depletion, cynomolgus monkey PBMCs, donor Cyno 5 (E:T = 3:1): 166 pM
  EC50 of autologous B cell depletion, cynomolgus monkey PBMCs, donor Cyno 6 (E:T = 2:1): 859 pM
  EC50 of autologous B cell depletion, cynomolgus monkey PBMCs, donor Cyno 7 (E:T = 3:1): 107 pM
  EC50 of autologous B cell depletion, cynomolgus monkey PBMCs, donor Cyno 8 (E:T = 7:1): 239 pM
  mean EC50 of autologous B cell depletion, cynomolgus monkey PBMCs: 343 pM
Human CD19 on cells [4]
  EC50 of autologous B cell depletion, human PBMCs, donor Human 5 (E:T = 8:1): 6.27 pM
  EC50 of autologous B cell depletion, human PBMCs, donor Human 6 (E:T = 8:1): 2.75 pM
  EC50 of autologous B cell depletion, human PBMCs, donor Human 7 (E:T = 5:1): 5.52 pM
  EC50 of autologous B cell depletion, human PBMCs, donor Human 8 (E:T = 9:1): 1.84 pM
  mean EC50 of autologous B cell depletion, human PBMCs: 4.2 pM
Cynomolgus CD19-His [5]
  fold lower affinity than for human CD19: ~10 fold
Human CD19 on cells [6]
  EC50 of redirected killing of Raji/GF cells, E:T = 2.5:1, 48 hours: 1.08 pM
  EC50 of redirected killing of Raji/GF cells, E:T = 5:1, 24 hours: 0.67 pM
  EC50 of redirected killing of Raji/GF cells, E:T = 5:1, 48 hours: 0.38 pM
  EC50 of redirected killing of Raji/GF cells, E:T = 10:1, 24 hours: 0.14 pM
  EC50 of redirected killing of Raji/GF cells, E:T = 10:1, 48 hours: 0.0441 pM
Human CD3 on T cells
  binding result: binds
[7]
  binding result: binds
Human CD19 on cells [8]
  EC50 of cytotoxicity against Raji/GF target cells with cynomolgus monkey PBMCs as effector cells (E:T = 30:1): 0.013 pM
  EC50 of redirected killing of HBL-2 cells, human T cells, E:T 10:1 (average): 10.5 pM
  EC50 of redirected killing of Jeko-1 cells, human T cells, E:T 10:1 (average): 0.146 pM
  EC50 of redirected killing of Raji/GF cells, human T cells, E:T 10:1 (average): 0.307 pM
